Test results from the supplement of paper PMC10567573.

B1: LPCAT4 (parent)
chain: HDPLYGKLFSTYLRPPHTSRGTSQ

Variants of: B1
Assay: protein stability index of a GFP-peptide fusion (GPS, HEK-293T) (PSI 1-6); higher = more stable
Settings: c terminus: a fixed tail appended
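Further: lentivirally expressed fusions sorted by FACS into six bins by GFP to DsRed ratio, PSI derived from sequencing read proportions per bin multiplied by bin number.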

Point of comparison: HDPPYGKLFSTYLRPPHTSRGTSQ [L4P], protein stability index 3.28. Against it:
- HDPLQGKLFSTYLRPPHTSRGTSQ [Y5Q] — higher, 3.82
- HDPLMGKLFSTYLRPPHTSRGTSQ [Y5M] — lower, 3.11
- HDPLCGKLFSTYLRPPHTSRGTSQ [Y5C] — higher, 3.69
- HDPLIGKLFSTYLRPPHTSRGTSQ [Y5I] — lower, 2.69
- HDPLFGKLFSTYLRPPHTSRGTSQ [Y5F] — lower, 2.47
- HDPLRGKLFSTYLRPPHTSRGTSQ [Y5R] — lower, 3.18
- HDPLSGKLFSTYLRPPHTSRGTSQ [Y5S] — lower, 3.21
- HDPLWGKLFSTYLRPPHTSRGTSQ [Y5W] — lower, 2.11
- HDPLVGKLFSTYLRPPHTSRGTSQ [Y5V] — higher, 3.3
- HDPLHGKLFSTYLRPPHTSRGTSQ [Y5H] — lower, 2.98
- HDPLAGKLFSTYLRPPHTSRGTSQ [Y5A] — lower, 2.94
- HDPLKGKLFSTYLRPPHTSRGTSQ [Y5K] — higher, 3.43
- HDPLTGKLFSTYLRPPHTSRGTSQ [Y5T] — higher, 3.36
- HDPLNGKLFSTYLRPPHTSRGTSQ [Y5N] — lower, 2.85
- HDPLLGKLFSTYLRPPHTSRGTSQ [Y5L] — lower, 3.05
- HDPLPGKLFSTYLRPPHTSRGTSQ [Y5P] — higher, 3.65
- HDPLGGKLFSTYLRPPHTSRGTSQ [Y5G] — lower, 2.76
- HDPLDGKLFSTYLRPPHTSRGTSQ [Y5D] — higher, 3.92
- HDPLEGKLFSTYLRPPHTSRGTSQ [Y5E] — higher, 3.67
- CDPLYGKLFSTYLRPPHTSRGTSQ [H1C] — higher, 3.66
- KDPLYGKLFSTYLRPPHTSRGTSQ [H1K] — higher, 3.32
- IDPLYGKLFSTYLRPPHTSRGTSQ [H1I] — higher, 3.4
- NDPLYGKLFSTYLRPPHTSRGTSQ [H1N] — lower, 3.2
- GDPLYGKLFSTYLRPPHTSRGTSQ [H1G] — lower, 2.88
- RDPLYGKLFSTYLRPPHTSRGTSQ [H1R] — lower, 3.09
- FDPLYGKLFSTYLRPPHTSRGTSQ [H1F] — lower, 2.12
- VDPLYGKLFSTYLRPPHTSRGTSQ [H1V] — higher, 4
- PDPLYGKLFSTYLRPPHTSRGTSQ [H1P] — lower, 3.1
- WDPLYGKLFSTYLRPPHTSRGTSQ [H1W] — lower, 2.38
- ADPLYGKLFSTYLRPPHTSRGTSQ [H1A] — higher, 4.01
- TDPLYGKLFSTYLRPPHTSRGTSQ [H1T] — higher, 3.96
- LDPLYGKLFSTYLRPPHTSRGTSQ [H1L] — higher, 4.22
- SDPLYGKLFSTYLRPPHTSRGTSQ [H1S] — higher, 3.68
- QDPLYGKLFSTYLRPPHTSRGTSQ [H1Q] — lower, 3.18
- EDPLYGKLFSTYLRPPHTSRGTSQ [H1E] — lower, 2.83
- MDPLYGKLFSTYLRPPHTSRGTSQ [H1M] — lower, 2.98
- DDPLYGKLFSTYLRPPHTSRGTSQ [H1D] — higher, 3.52
- HGPLYGKLFSTYLRPPHTSRGTSQ [D2G] — lower, 2.56
- HKPLYGKLFSTYLRPPHTSRGTSQ [D2K] — lower, 2.63
- HRPLYGKLFSTYLRPPHTSRGTSQ [D2R] — lower, 2.63
- HLPLYGKLFSTYLRPPHTSRGTSQ [D2L] — lower, 2.34
- HWPLYGKLFSTYLRPPHTSRGTSQ [D2W] — lower, 2.86
- HNPLYGKLFSTYLRPPHTSRGTSQ [D2N] — lower, 2.1
- HMPLYGKLFSTYLRPPHTSRGTSQ [D2M] — lower, 1.91
- HHPLYGKLFSTYLRPPHTSRGTSQ [D2H] — lower, 2.19
- HFPLYGKLFSTYLRPPHTSRGTSQ [D2F] — lower, 2.27
- HQPLYGKLFSTYLRPPHTSRGTSQ [D2Q] — lower, 2.44
- HYPLYGKLFSTYLRPPHTSRGTSQ [D2Y] — lower, 2.62
- HPPLYGKLFSTYLRPPHTSRGTSQ [D2P] — lower, 2.8
- HSPLYGKLFSTYLRPPHTSRGTSQ [D2S] — lower, 2.5
- HCPLYGKLFSTYLRPPHTSRGTSQ [D2C] — lower, 2.28
- HTPLYGKLFSTYLRPPHTSRGTSQ [D2T] — lower, 1.98
- HEPLYGKLFSTYLRPPHTSRGTSQ [D2E] — lower, 2.74
- HAPLYGKLFSTYLRPPHTSRGTSQ [D2A] — lower, 2.37
- HVPLYGKLFSTYLRPPHTSRGTSQ [D2V] — lower, 1.85
- HIPLYGKLFSTYLRPPHTSRGTSQ [D2I] — lower, 1.96
- HDPFYGKLFSTYLRPPHTSRGTSQ [L4F] — lower, 3.22
- HDPVYGKLFSTYLRPPHTSRGTSQ [L4V] — lower, 2.66
- HDPYYGKLFSTYLRPPHTSRGTSQ [L4Y] — lower, 2.69
- HDPSYGKLFSTYLRPPHTSRGTSQ [L4S] — higher, 3.35
- HDPEYGKLFSTYLRPPHTSRGTSQ [L4E] — higher, 3.46
- HDPRYGKLFSTYLRPPHTSRGTSQ [L4R] — lower, 1.58
- HDPTYGKLFSTYLRPPHTSRGTSQ [L4T] — lower, 2.87
- HDPDYGKLFSTYLRPPHTSRGTSQ [L4D] — higher, 3.74
- HDPMYGKLFSTYLRPPHTSRGTSQ [L4M] — higher, 3.29
- HDPAYGKLFSTYLRPPHTSRGTSQ [L4A] — lower, 2.32
- HDPGYGKLFSTYLRPPHTSRGTSQ [L4G] — higher, 3.3
- HDPKYGKLFSTYLRPPHTSRGTSQ [L4K] — lower, 1.9
- HDPWYGKLFSTYLRPPHTSRGTSQ [L4W] — lower, 2.98
- HDPNYGKLFSTYLRPPHTSRGTSQ [L4N] — lower, 2.28
- HDPHYGKLFSTYLRPPHTSRGTSQ [L4H] — lower, 3.22
- HDPQYGKLFSTYLRPPHTSRGTSQ [L4Q] — lower, 2.03
- HDPIYGKLFSTYLRPPHTSRGTSQ [L4I] — lower, 2.04
- HDPCYGKLFSTYLRPPHTSRGTSQ [L4C] — the same, 3.28
- HDPLYGKLDSTYLRPPHTSRGTSQ [F9D] — higher, 4.41
- HDPLYGKLISTYLRPPHTSRGTSQ [F9I] — higher, 3.82
- HDPLYGKLASTYLRPPHTSRGTSQ [F9A] — higher, 4.32
- HDPLYGKLCSTYLRPPHTSRGTSQ [F9C] — higher, 3.71
- HDPLYGKLHSTYLRPPHTSRGTSQ [F9H] — higher, 4.33
- HDPLYGKLGSTYLRPPHTSRGTSQ [F9G] — higher, 4.09
- HDPLYGKLLSTYLRPPHTSRGTSQ [F9L] — higher, 3.54
- HDPLYGKLESTYLRPPHTSRGTSQ [F9E] — higher, 4.54
- HDPLYGKLMSTYLRPPHTSRGTSQ [F9M] — higher, 4.35
- HDPLYGKLKSTYLRPPHTSRGTSQ [F9K] — higher, 4.05
- HDPLYEKLFSTYLRPPHTSRGTSQ [G6E] — lower, 3.19
- HDPLYNKLFSTYLRPPHTSRGTSQ [G6N] — lower, 2.08
- HDPLYVKLFSTYLRPPHTSRGTSQ [G6V] — lower, 2.56
- HDPLYPKLFSTYLRPPHTSRGTSQ [G6P] — higher, 3.46
- HDPLYHKLFSTYLRPPHTSRGTSQ [G6H] — lower, 1.88
- HDPLYLKLFSTYLRPPHTSRGTSQ [G6L] — lower, 2.18
- HDPLYTKLFSTYLRPPHTSRGTSQ [G6T] — lower, 1.86
- HDPLYSKLFSTYLRPPHTSRGTSQ [G6S] — lower, 1.27
- HDPLYQKLFSTYLRPPHTSRGTSQ [G6Q] — lower, 2.35
